Experimental data taken from PMC5586252, “PP2A-B′ holoenzyme substrate recognition, regulation and role in cytokinesis” (Cell Discovery, 2017).

B1: Cyk4 (1–177): Cyk4 construct (residue 1–177) containing the coiled-coil domain and a portion of the disordered region (protein, UniProt Q9H0H5 1-177, looked up, fragment)
chain: MDTMMLNVRNLFEQLVRRVEILSEGNEVQFIQLAKDFEDFRKKWQRTDHELGKYKDLLMKAETERSALDVKLKHARNQVDVEIKRRQRAEADCEKLERQIQLIREMLMCDTSGSIQLSEEQKSALAFLNRGQPSSSNAGNKRLSTIDESGSILSDISFDKTDESLDWDSSLVKTFKL
B2: pCyk4 (1–177): Cyk4 (1–177) phosphorylated in vitro by Plk1 (protein)
chain: GSMDTMMLNVRNLFEQLVRRVEILSEGNEVQFIQLAKDFEDFRKKWQRTDHELGKYKDLLMKAETERSALDVKLKHARNQVDVEIKRRQRAEADCEKLERQIQLIREMLMCDTSGSIQLSEEQKSALAFLNRGQPSSSNAGNKRLSTIDESGSILSDISFDKTDESLDWDSSLVKTFKL
modifications: phosphorylated by Plk1: mono- to pentakis-phosphorylated forms, no unphosphorylated form; sites of the tetrakis form S149, S157, S164 and S170; left off: GST, N-terminal, cleaved
notes: Cyk4 (1–177) phosphorylated in vitro by Plk1

Test system: GST-B′γ1
Test: Titration pull-down of Cyk4 / pCyk4 by immobilized GST-B′γ1
Assay type: binding
Details: 10 μg immobilized GST-B′γ1
Protocol: Next, we thoroughly examined Cyk4 phosphorylation sites by MS and the effect of each phosphorylation on B′ binding. […] Upon phosphorylation in vitro by Plk1, the interaction can be detected with Cyk4 concentration as low as 0.6 μM and the half maximum binding can be obtained with the concentration of pCyk4 (1–177) between 2.5 and 5 μM (Figure 4d). […] No unphosphorylated CyK4 is detected (Figure 4e, left panel). The most abundant species are 2pCyk4 and 3pCyk4 that correspond to bis- and tris-phosphorylated proteoforms, respectively (Figure 4e, left panel). Further tandem MS with collision-induced dissociation (CID) and electron capture dissociation (ECD) of 4pCyk4 pinpointed the four sites that are phosphorylated, S149, S157, S164 and S170 (Figure 4e, right panel). Phosphorylation at these four sites was previously reported collectively, but not simultaneously, in different studies. […] As 5pCyk4 represents a minor species of the pCyk4 (Figure 4e, left panel), we concluded that the increase of binding affinity between B′ and pCyk4 is largely contributed by phosphorylation at S149. […] These collectively confirmed that pCyk4 interacts with PP2A-B′ holoenzymes via the identified B′-binding motif that is responsive to primarily the Plk1 phosphorylation site at S149.
Approximately 10 μg of GST-tagged B′-binding motifs or GST-pCyk4 was bound to 10 μl of glutathione resin via GST tag. […]

Molecule	concentration at which interaction with GST-B′γ1 can be detected [µM]
B1	≥ 20
B2	0.6
